Paper PMC8968458

Target: p65 (UniProt Q04206)
Assay: pull-down of SFB-tagged RB-N from cells
Conditions: reference: SFB-RB-N wild type; sites S249,T252

binding against the reference: weaker
Substance: RB N-terminal portion (RB-N) (from UniProt P06400) S249A/T252A
